Legend:
[1] = test system: N2A cells; assay: MTT cell proliferation assay; format: cell-based, mouse; conditions: G4C2×38 or C4G2×39 plasmids, 72 h
Protocol: Neuro-2a (N2A) cells were split into each well of a 24 well plate (30,000 cells/well). Each plate contained 4 wells with only media to serve as a blank and 4 wells/treatment. Cells were transfected for 72 hours with either 500 ng pcDNA 3.1, pcDNA 3.1/RAN-G4C2×15 RAN-G4C2×38-sense, RAN-C4G2×15 or RAN-C4G2×39-antisense; or 250 ng pcDNA6.2-GW/EmGFP-Control miR RNAi, pcDNA6.2-GW/EmGFP-mouse SRSF1 miR1+2 RNAi, p3×FLAG/SRSF1 (11-196), or p3×FLAG/SRSF1 (11-196)-m4 and 250 ng pcDNA 3.1, pcDNA 3.1/RAN-G4C2×38-sense or RAN-C4G2×39-antisense.
[…] Thiazolyl Blue Tetrazolum Bromide reagent (MTT) was added to each well and incubated in the dark at […] for 1 hour. Cells were subsequently lysed with equal volume MTT lysis buffer (20% SDS, 50% Dimethylformamide (DMF)) and incubated, shaking, at room temperature for 1 hour. Absorbance at 595 was then assessed with a PHERAstar FS (BMG Labtech). Experiments were performed in triplicate for each treatment. Absorbance data was analysed using PHERAstar MARS (BMG Labtech) and GraphPad Prism (version 6).

[2] = biological target: T1, NXF1 (Mus musculus, UniProt Q99JX7); assay: Anti-FLAG co-immunoprecipitation of endogenous NXF1 in N2A cells; format: binding; conditions: FLAG-tagged protein, 48 h
T1 construct: endogenous in cells; host or cells: Neuro-2a (N2A)
T1 sequence (Q99JX7 1-618): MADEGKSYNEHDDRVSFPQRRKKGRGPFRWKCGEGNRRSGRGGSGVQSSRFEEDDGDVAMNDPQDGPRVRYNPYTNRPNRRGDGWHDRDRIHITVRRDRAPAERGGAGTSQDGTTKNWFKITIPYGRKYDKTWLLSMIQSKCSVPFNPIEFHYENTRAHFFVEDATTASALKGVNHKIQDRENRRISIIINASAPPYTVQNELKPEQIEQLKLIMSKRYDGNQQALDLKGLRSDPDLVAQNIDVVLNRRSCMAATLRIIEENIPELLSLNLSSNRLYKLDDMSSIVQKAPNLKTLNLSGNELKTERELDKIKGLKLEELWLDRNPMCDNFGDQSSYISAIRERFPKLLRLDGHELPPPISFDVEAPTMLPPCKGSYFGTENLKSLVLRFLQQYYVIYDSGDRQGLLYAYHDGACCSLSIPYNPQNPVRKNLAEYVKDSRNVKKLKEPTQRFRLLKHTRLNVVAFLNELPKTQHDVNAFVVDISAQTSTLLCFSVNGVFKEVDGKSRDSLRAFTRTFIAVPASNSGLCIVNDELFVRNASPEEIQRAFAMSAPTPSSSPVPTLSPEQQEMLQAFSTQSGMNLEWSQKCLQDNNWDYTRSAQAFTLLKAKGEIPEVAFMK
Protocol: Cells were split into 1×10 cm plates/treatment (1.5×10^6 cells/plate) and transfected with 15 μg p3×FLAG, p3×FLAG/SRSF1 (11-196), p3×FLAG/SRSF1 (11-196)-m2 or p3×FLAG/SRSF1(11-196)-m4 using 3 μg PEI/1 μg DNA and one tenth medium volume OptiMEM.
Proteins were extracted from Neuro-2a cells 48 hours after transfection. Cells were briefly washed in ice cold PBS, scraped into 500 μl ice cold lysis buffer, passed through a 21G gauge needle 10 times and left to lyse on ice for 10 minutes. Lysed cells were cleared by centrifugation at maximum speed at 4° C. for five minutes and protein extracts were quantified using Bradford Reagent. 2 mg of total protein in 1 ml lysis buffer was incubated with 30 μl anti-FLAG® M2 affinity resin slurry (Sigma A2220) (which had been blocked overnight with 1% BSA in IP lysis buffer) for 2 hours at 4° C. on a rotating wheel. […] 30 μg total protein and 15 μl captured protein complexes were resolved by SDS-PAGE, electroblotted onto nitrocellulose membrane and probed using FLAG, NXF1 clone 53H8 [1:2000] (Abcam ab50609) and […]-tubulin.

[3] = test system: C4G2×5 repeat RNA; assay: Protein:RNA UV crosslinking assay, antisense probe; format: binding; conditions: purified recombinant hexa-histidine-tagged protein
Protocol: Recombinant proteins expressed in 1.51 of E. coli BL21 (DE3)-RP (Novagen) cell cultures were purified by IMAC chromatography on TALON/Cobalt beads (Clontech) in 1M NaCl containing buffers to prevent the potential co-purification of E. coli RNA (Lysis buffer: 50 mM TRIS-HCl pH8.0, 1M NaCl, 0.5% Triton X-100; Wash buffer: 50 mM TRIS-HCl pH8.0, 1M NaCl, 0.5% Triton X-100, 5 mM imidazole). […] Binding reactions were resolved on SDS-PAGE prior to analysis by Coomassie staining and Phosphoimaging.

co-immunoprecipitation of endogenous NXF1 [2]: severely impaired
B1: SRSF1-m4: quadruple SRSF1 point mutant aa11-196, dominant negative, does not interact with TAP/NXF1 (protein)
chain: AGNNDCRIYVGNLPPDIRTKDIEDVFYKYGAIRDIDLKNRRGGPPFAFVEFEDPRDAEDAVYGRDGYDYDGYRLRVEFPASGAGTGRGGGGGGGGGAPRGRYGPPSAASENRVVVSGLPPSGSWQDLKDHMREAGDVCYADVYRDGTGVVEFVRKEDMTYAVRKLDNTKFRSHEGETAYIRVKVDG
modifications: left off: small tags and cut ends
neurotoxicity mediated by expression of the C9ORF72 repeat transcripts [1]: suppress the neurotoxicity
direct interaction with antisense C4G2×5 repeat RNA [3]: retains the ability to directly interact

Reference: patent US10801027B2, “Inhibitors of SRSF1 to treat neurodegenerative disorders” (University of Sheffield, priority 2016, dated 2020)
